This is an account of results in patent US20240352133A1.

Test [1] has as its target Recombinant human his-tagged IGF 1R extracellular domain protein (human) (UniProt P08069). As to the kind of experiment: SPR, captured antibody, pH 7.4. On the technique in general: In SPR one partner is held on a chip, and binding of the other changes the refractive index at the surface.
For test [2] the target is unchanged. In words: SPR, captured antibody, dissociation at pH 6.

Numbering of substitutions follows the chain as printed.

B1: VRDN-03111 (antibody, V domains shown)
VH: QVQLVESGGGVVQPGRSLRLSCAASGFTFSDYTMHWVRQAPGKGLEWVAIIWFDGSSKYYVDSVKGRFTISRDNSKNTLYLQMNSLRAEDTAVYYCARELGRRYFDIWGRGTLVTVSS
VL: EIVMTQSPATLSVSPGERATLSCRASQGVSSYLAWYQQKPGQAPRLLIYGASTRATGIPARFSGSGSGTEFTLTISSLQSEDFAVYYCQQRSRWPPWTFGQGTKLEIK
One may read the Kd as the free concentration of one partner at which half of the binding sites on the other are occupied at equilibrium, for simple one-to-one binding. In general, koff refers to the rate constant with which the complex falls apart. The kon is the second-order rate constant of association. On to B1, for which, in test [1], the Kd came to 4.71 nM, the koff is 0.000362 s⁻¹ and the kon is 77000 M⁻¹ s⁻¹. Besides, in test [2], the Kd amounted to 2.06 nM, the koff was determined as 0.000479 s⁻¹ and the kon was found to be 233000 M⁻¹ s⁻¹.

B2: VRDN-03112 (antibody, V domains shown)
VH: B1 VH with V61P, D62G
VL: B1 VL
Turning to B2, in test [1], the Kd was determined as 2.97 nM, the koff turned out to be 0.000322 s⁻¹ and the kon turned out to be 109000 M⁻¹ s⁻¹. In test [2], the Kd amounted to 2.74 nM, the koff was 0.000463 s⁻¹ and the kon was 169000 M⁻¹ s⁻¹.

B3: VRDN-03113 (antibody, V domains shown)
VH: B1 VH with Y32H, T33Y, H35D, V61A
VL: B1 VL
On to B3, for which, in test [1], the Kd stood at 2.76 nM, the koff was found to be 0.00388 s⁻¹ and the kon turned out to be 1.41e+06 M⁻¹ s⁻¹. Besides, in test [2], the Kd stood at 2.48 nM, the koff worked out at 0.00191 s⁻¹ and the kon came to 771000 M⁻¹ s⁻¹.

B4: VRDN-03114 (antibody, V domains shown)
VH: B1 VH with Y32H, T33Y, H35D
VL: B1 VL
Turning to B4, in test [1], the Kd is 33.4 nM, the koff turned out to be 0.000991 s⁻¹ and the kon turned out to be 29700 M⁻¹ s⁻¹. In test [2], the Kd was 0.0565 nM, the koff came out at 6.9e-06 s⁻¹ and the kon was 122000 M⁻¹ s⁻¹.
